Laboratory results as given in patent US10894036B2, “Use of marizomib for the treatment of central nervous system (CNS) cancers” (Celgene International II Sàrl, priority 2016, dated 2021).

Experiment: Phase 1/2 MRZ + BEV and MRZ monotherapy in recurrent G4 MG: adverse events, DLT
Conditions: for Ataxia: Treatment Related Grade ≥3 AE, # patients / Confusional State: Treatment Related Grade ≥3 AE, # patients / Delusion: Treatment Related Grade ≥3 AE, # patients / Dyspnea: Treatment Related Grade ≥3 AE, # patients / Embolism: Treatment Related Grade ≥3 AE, # patients / Fall: Treatment Related Grade ≥3 AE, # patients / Fatigue: Treatment Related Grade ≥3 AE, # patients / Hallucination: Treatment Related Grade ≥3 AE, # patients / Headache: Treatment Related Grade ≥3 AE, # patients / Hypertension: Treatment Related Grade ≥3 AE, # patients / Hyponatremia: Treatment Related Grade ≥3 AE, # patients / Insomnia: Treatment Related Grade ≥3 AE, # patients / Intracranial Hemorrhage: Treatment Related Grade ≥3 AE, # patients / Optic Nerve Disorder: Treatment Related Grade ≥3 AE, # patients / Proteinuria: Treatment Related Grade ≥3 AE, # patients: attributed to labelled agent
[1] = MRZ 0.7 mg/m^2 + BEV, Cohort 2, N = 3
[2] = MRZ 0.7 mg/m^2 Cohort 2 (N = 3)
[3] = MRZ 0.8 mg/m^2 + BEV, Cohorts 3 & 4, N = 27
[4] = MRZ 0.8 mg/m^2 + BEV, N = 27, related to the labelled drug
[5] = MRZ 0.8 mg/m^2 Cohorts 3 & 4 (N = 27)

Protocol: The clinical trial was a Phase 1, dose-escalation (3+3 design) followed by dose-expansion at recommended Phase 2 Dose (RP2D).
The drugs were infused on 28-Day Cycles. Tumor response is assessed every other cycle by RANO criteria.
The safety data will be presented in individual listings and summary tables, including frequency tables for adverse events and frequency and shift tables for laboratory variables. The safety population will be all subjects who received at least one dose of either study drug in Phase 1 or MRZ in Phase 2.

bevacizumab [reference compound]
Confusional State, Treatment Related Grade ≥3 AE, patients [1]: 0 | Delusion, Treatment Related Grade ≥3 AE, patients [1]: 0 | Dyspnea, Treatment Related Grade ≥3 AE, patients [1]: 0 | Embolism, Treatment Related Grade ≥3 AE, patients [1]: 0 | Fall, Treatment Related Grade ≥3 AE, patients [1]: 0 | Fatigue, Treatment Related Grade ≥3 AE, patients [1]: 0 | Hallucination, Treatment Related Grade ≥3 AE, patients [1]: 0 | Headache, Treatment Related Grade ≥3 AE, patients [1]: 0 | Hypertension, Treatment Related Grade ≥3 AE, patients [1]: 1 | Hyponatremia, Treatment Related Grade ≥3 AE, patients [1]: 0 | Insomnia, Treatment Related Grade ≥3 AE, patients [1]: 0 | Intracranial Hemorrhage, Treatment Related Grade ≥3 AE, patients [1]: 0 | Optic Nerve Disorder, Treatment Related Grade ≥3 AE, patients [1]: 0 | Proteinuria, Treatment Related Grade ≥3 AE, patients [1]: 1 | Ataxia, Treatment Related Grade ≥3 AE, patients (MRZ 0.7 mg/m^2 + BEV, Cohort 2, N = 3, related to the labelled drug): 0 | Ataxia: Treatment Related Grade ≥3 AE, # patients [2]: 0 | Confusional State: Treatment Related Grade ≥3 AE, # patients [2]: 0 | Delusion: Treatment Related Grade ≥3 AE, # patients [2]: 0 | Dyspnea: Treatment Related Grade ≥3 AE, # patients [2]: 0 | Embolism: Treatment Related Grade ≥3 AE, # patients [2]: 0 | Fall: Treatment Related Grade ≥3 AE, # patients [2]: 0 | Fatigue: Treatment Related Grade ≥3 AE, # patients [2]: 0 | Hallucination: Treatment Related Grade ≥3 AE, # patients [2]: 0 | Headache: Treatment Related Grade ≥3 AE, # patients [2]: 0 | Hypertension: Treatment Related Grade ≥3 AE, # patients [2]: 1 | Hyponatremia: Treatment Related Grade ≥3 AE, # patients [2]: 0 | Insomnia: Treatment Related Grade ≥3 AE, # patients [2]: 0 | Intracranial Hemorrhage: Treatment Related Grade ≥3 AE, # patients [2]: 0 | Optic Nerve Disorder: Treatment Related Grade ≥3 AE, # patients [2]: 0 | Proteinuria: Treatment Related Grade ≥3 AE, # patients [2]: 1 | Fatigue, treatment-related AE, patients (MRZ 0.8 mg/m^2 + BEV Cohorts 3 & 4, N = 27, related to the labelled drug (MRZ + BEV = related to both)): 18 (66.7%) | Confusional State, Treatment Related Grade ≥3 AE, patients [3]: 0 | Delusion, Treatment Related Grade ≥3 AE, patients [3]: 0 | Dyspnea, Treatment Related Grade ≥3 AE, patients [3]: 1 | Embolism, Treatment Related Grade ≥3 AE, patients [3]: 1 | Fall, Treatment Related Grade ≥3 AE, patients [3]: 0 | Fatigue, Treatment Related Grade ≥3 AE, patients [3]: 1 | Hallucination, Treatment Related Grade ≥3 AE, patients [3]: 0 | Headache, Treatment Related Grade ≥3 AE, patients [3]: 1 | Hypertension, Treatment Related Grade ≥3 AE, patients [3]: 5 | Hyponatremia, Treatment Related Grade ≥3 AE, patients [3]: 0 | Insomnia, Treatment Related Grade ≥3 AE, patients [3]: 0 | Intracranial Hemorrhage, Treatment Related Grade ≥3 AE, patients [3]: 1 | Optic Nerve Disorder, Treatment Related Grade ≥3 AE, patients [3]: 1 | Proteinuria, Treatment Related Grade ≥3 AE, patients [3]: 0 | Ataxia, Treatment Related Grade ≥3 AE, patients (MRZ 0.8 mg/m^2 + BEV, Cohorts 3 & 4, N = 27, related to the labelled drug): 0 | Anaemia, treatment-related AE, patients [4]: 0 (0.0%) | Ataxia, treatment-related AE, patients [4]: 0 (0.0%) | Confusional state, treatment-related AE, patients [4]: 1 (3.7%) | Constipation, treatment-related AE, patients [4]: 1 (3.7%) | Diarrhoea, treatment-related AE, patients [4]: 1 (3.7%) | Dizziness, treatment-related AE, patients [4]: 1 (3.7%) | Dysphonia, treatment-related AE, patients [4]: 10 (37.0%) | Epistaxis, treatment-related AE, patients [4]: 7 (25.9%) | Fall, treatment-related AE, patients [4]: 0 (0.0%) | Hallucination, treatment-related AE, patients [4]: 0 (0.0%) | Headache, treatment-related AE, patients [4]: 6 (22.2%) | Infusion site pain, treatment-related AE, patients [4]: 1 (3.7%) | Muscular weakness, treatment-related AE, patients [4]: 1 (3.7%) | Platelet count decreased, treatment-related AE, patients [4]: 3 (11.1%) | Upper-airway cough syndrome, treatment-related AE, patients [4]: 5 (18.5%) | Ataxia: Treatment Related Grade ≥3 AE, # patients [5]: 0 | Confusional State: Treatment Related Grade ≥3 AE, # patients [5]: 0 | Delusion: Treatment Related Grade ≥3 AE, # patients [5]: 0 | Dyspnea: Treatment Related Grade ≥3 AE, # patients [5]: 1 | Embolism: Treatment Related Grade ≥3 AE, # patients [5]: 1 | Fall: Treatment Related Grade ≥3 AE, # patients [5]: 0 | Fatigue: Treatment Related Grade ≥3 AE, # patients [5]: 1 | Hallucination: Treatment Related Grade ≥3 AE, # patients [5]: 0 | Headache: Treatment Related Grade ≥3 AE, # patients [5]: 1 | Hypertension: Treatment Related Grade ≥3 AE, # patients [5]: 5 | Hyponatremia: Treatment Related Grade ≥3 AE, # patients [5]: 0 | Insomnia: Treatment Related Grade ≥3 AE, # patients [5]: 0 | Intracranial Hemorrhage: Treatment Related Grade ≥3 AE, # patients [5]: 1 | Optic Nerve Disorder: Treatment Related Grade ≥3 AE, # patients [5]: 1 | Proteinuria: Treatment Related Grade ≥3 AE, # patients [5]: 0 | Anaemia: # pts, related to BEV (MRZ+BEV, 12 Sep. 2016): 0 | Anxiety: # pts, related to BEV (MRZ+BEV, 12 Sep. 2016): 0 | Aphasia: # pts, related to BEV (MRZ+BEV, 12 Sep. 2016): 0 | Appendicitis Perforated: # pts, related to BEV (MRZ+BEV, 12 Sep. 2016): 0 | Asthenia: # pts, related to BEV (MRZ+BEV, 12 Sep. 2016): 0 | Ataxia: # pts, related to BEV (MRZ+BEV, 12 Sep. 2016): 0 | Confusional State: # pts, related to BEV (MRZ+BEV, 12 Sep. 2016): 0 | Constipation: # pts, related to BEV (MRZ+BEV, 12 Sep. 2016): 0 | Convulsion: # pts, related to BEV (MRZ+BEV, 12 Sep. 2016): 0 | Delusion: # pts, related to BEV (MRZ+BEV, 12 Sep. 2016): 0 | Depressed Level of Consciousness: # pts, related to BEV (MRZ+BEV, 12 Sep. 2016): 0 | Diarrhoea: # pts, related to BEV (MRZ+BEV, 12 Sep. 2016): 0 | Dizziness: # pts, related to BEV (MRZ+BEV, 12 Sep. 2016): 0 | Dysarthria: # pts, related to BEV (MRZ+BEV, 12 Sep. 2016): 0 | Dysphagia: # pts, related to BEV (MRZ+BEV, 12 Sep. 2016): 0 | Dysphonia: # pts, related to BEV (MRZ+BEV, 12 Sep. 2016): 10 | Dyspnoea: # pts, related to BEV (MRZ+BEV, 12 Sep. 2016): 0
